Here are results for three molecules from patent publication US20050053973A1 (published 2005).

In one experiment the target is T1, human serum albumin (human, UniProt P02768 25-609).
T1 construct: also called HSA; HAS
As to the kind of experiment: ELISA, 0.5 µg HSA per well, expression lysate, anti-HA-HRP, signal equal to or better than the anti-HSA trimer. Background: In an ELISA, binding on a coated surface is turned into a signal by an enzyme label.

For another experiment, the target named is CD28 on monkey PBMC (monkey). Kind of experiment: cell-based or functional assay.
Another experiment deals with human IgE (human, UniProt P01854 1-428). As to the kind of experiment: Biacore, human IgE coupled to a CM5 chip by NHS/EDC, sample protein in flow. From the text:
Human IgE was immobilized to a CM5 chip (BiaCore) using standard NHS/EDC methods. Sample proteins were dialyzed into HBS buffer overnight, and the dialysis buffer was used as a running buffer for the experiment. Sample proteins were run successively over IgE or ethanolamine coated flow cells, and the data analyzed using the BiaEvaluation software package.

human IgE, sequence (P01854 other isoform, or with tags, fused parts or gaps): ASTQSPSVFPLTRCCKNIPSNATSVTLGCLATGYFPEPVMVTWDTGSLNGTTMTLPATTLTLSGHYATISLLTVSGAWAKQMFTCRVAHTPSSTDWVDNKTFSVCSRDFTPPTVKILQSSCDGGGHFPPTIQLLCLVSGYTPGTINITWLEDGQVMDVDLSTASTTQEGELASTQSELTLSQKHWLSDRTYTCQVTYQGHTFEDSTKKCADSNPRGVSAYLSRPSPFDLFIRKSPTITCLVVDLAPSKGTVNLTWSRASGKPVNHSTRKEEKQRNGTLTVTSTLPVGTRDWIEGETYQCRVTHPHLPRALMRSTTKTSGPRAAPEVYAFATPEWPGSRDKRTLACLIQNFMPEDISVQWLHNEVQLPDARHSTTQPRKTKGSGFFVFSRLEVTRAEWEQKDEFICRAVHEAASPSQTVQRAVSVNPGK
Procedure for human serum albumin: ELISA plate wells were coated with 0.2 μg of CD40L or 0.5 μg of HAS, and 5 μl of the monomer expression clone lysate was applied to each well. The bound monomers (which were produced as a hemagglutinin (HA) fusion) were then detected by anti-HA-HRP conjugated antibody, developed by horse-radish peroxidase enzyme activity, and read at an OD of 450 nm.

In the case of CNPTGKFKCRSGRCVPRESCRCDGVDDCEDNSDEKDCQPHTSLQ (designed binder, HA fusion, tested as expression lysate) [A1_34], in the experiment with human serum albumin, the binding result was “binds”.

B1: CD28-A10 (designed binder)
chain: CGPGRFQCESGQCVPATWVCDGDDDCADGSDEKSCATTAPTCESNQFQCGSGQCLPGTWRCDGVNDCADSSDETGCGRPGPGATSAPAACGPGRFQCNNGNCVPQTLGCDGDNDCGDSSDEANCSAPASEPPGSL
B1: the “IC50, PBMC assay on monkey cells” value with CD28 on monkey PBMC was determined as 7 nM.

B2: recombinant human FcERI protein (receptor, UniProt P12319 26-205, looked up)
chain: VPQKPKVSLNPPWNRIFKGENVTLTCNGNNFFEVSSTKWFHNGSLSEETNSSLNIVNAKFEDSGEYKCQHQQVNESEPVYLEVFSDWLLLQASAEVVMEGQPLFLRCHGWRNWDVYKVIYYKDGEALKYWYENHNISITNATVEDSGTYYCTGKVWQLDYESEPLNITVIKAPREKYWLQ
notes: also called recombinant FcERI; recombinant soluble IgE receptor
Consider B2, for which the Kd (as a rule, a measure of binding affinity in units of concentration) with human IgE came to 450 nM.
